Laboratory results taken from patent US20230051304A1 (Regeneron, published 2023).
Substitutions are numbered along the chain they refer to. Like-named read-outs stand apart in the source and are kept apart here.

B1: Monovalent: IL12*(p35*xp40*)-Fc (Fc fusion)
chain 1: RVIPVSGPARCLSQSRNLLKTTDDMVKTAREKLKHYSCTAEDIDHEDITRDQTSTLKTCLPLELHKNESSLATRETSSTTRGSCLPPQKTSLMMTLCLGSIYEDLKMYQTEFQAINAALQNHNHQQIILDKGMLVAIDELMQSLNHNGETLRQKPPVGEADPYRVKMKLCILLHAFSTRVVTINRVMGYLSSAGGGGSGGGGSGGGGSESKYGPPCPPCPAPPVAGPSVFLFPPKPKDTLMISRTPEVTCVVVDVSQEDPEVQFNWYVDGVEVHNAKTKPREEQFNSTYRVVSVLTVLHQDWLNGKEYKCKVSNKGLPSSIEKTISKAKGQPREPQVYTLPPSQEEMTKNQVSLWCLVKGFYPSDIAVEWESNGQPENNYKTTPPVLDSDGSFFLYSRLTVDKSRWQEGNVFSCSVMHEALHNHYTQKSLSLSLGK
chain 2: MWELEKDVYVVEVDWTPDAPGETVNLTCDTPEEDDITWTSDQRHGVIGSGKTLTITVKEFLDAGQYTCHKGGETLSHSHLLLHKKENGIWSTEILKNFKNKTFLKCEAPNYSGRFTCSWLVQRNMDLKFNIKSSSSSPDSRAVTCGMASLSAEKVTLDQRDYEKYSVSCQEDVTSPTAEETLPIELALEARQQNKYENYSTSFFIRDIIKPDPPKNLQMKPLKNSQVEVSWEYPDSWSTPHSYFSLKFFVRIQRKKEKMKETEEGCNQKGAFLVEKTSTEVQCKGGNVCVQAQDRYYNSSCSKWACVPCRVRSGGGGSGGGGSGGGGSESKYGPPCPPCPAPPVAGPSVFLFPPKPKDTLMISRTPEVTCVVVDVSQEDPEVQFNWYVDGVEVHNAKTKPREEQFNSTYRVVSVLTVLHQDWLNGKEYKCKVSNKGLPSSIEKTISKAKGQPREPQVYTLPPSQEEMTKNQVSLSCAVKGFYPSDIAVEWESNGQPENNYKTTPPVLDSDGSFFLVSRLTVDKSRWQEGNVFSCSVMHEALHNRFTQKSLSLSPGK
B2: Fc-IL12Rβ1(D1)-p40-p35 x Fc (Fc fusion)
chain 1: ESKYGPPCPPCPAPPVAGPSVFLFPPKPKDTLMISRTPEVTCVVVDVSQEDPEVQFNWYVDGVEVHNAKTKPREEQFNSTYRVVSVLTVLHQDWLNGKEYKCKVSNKGLPSSIEKTISKAKGQPREPQVYTLPPSQEEMTKNQVSLSCAVKGFYPSDIAVEWESNGQPENNYKTTPPVLDSDGSFFLVSRLTVDKSRWQEGNVFSCSVMHEALHNRFTQKSLSLSPGK
chain 2: ESKYGPPCPPCPAPPVAGPSVFLFPPKPKDTLMISRTPEVTCVVVDVSQEDPEVQFNWYVDGVEVHNAKTKPREEQFNSTYRVVSVLTVLHQDWLNGKEYKCKVSNKGLPSSIEKTISKAKGQPREPQVYTLPPSQEEMTKNQVSLWCLVKGFYPSDIAVEWESNGQPENNYKTTPPVLDSDGSFFLYSRLTVDKSRWQEGNVFSCSVMHEALHNHYTQKSLSLSLGKGGGGSGGGGSGGGGSQLGASGPGDGCCVEKTSFPEGASGSPLGPRNLSCYRVSKTDYECSWQYDGPEDNVSHVLWCCFVPPNHTHTGQERCRYFSSGPDRTVQFWEQDGIPVLSKVNFWVESRLGNRTMKSQKISQYLYNWTKTTPPLGGGGSGGGGSGGGGSMWELEKDVYVVEVDWTPDAPGETVNLTCDTPEEDDITWTSDQRHGVIGSGKTLTITVKEFLDAGQYTCHKGGETLSHSHLLLHKKENGIWSTEILKNFKNKTFLKCEAPNYSGRFTCSWLVQRNMDLKFNIKSSSSSPDSRAVTCGMASLSAEKVTLDQRDYEKYSVSCQEDVTCPTAEETLPIELALEARQQNKYENYSTSFFIRDIIKPDPPKNLQMKPLKNSQVEVSWEYPDSWSTPHSYFSLKFFVRIQRKKEKMKETEEGCNQKGAFLVEKTSTEVQCKGGNVCVQAQDRYYNSSCSKWACVPCRVRSGGGGSGGGGSGGGGSRVIPVSGPARCLSQSRNLLKTTDDMVKTAREKLKHYSCTAEDIDHEDITRDQTSTLKTCLPLELHKNESCLATRETSSTTRGSCLPPQKTSLMMTLCLGSIYEDLKMYQTEFQAINAALQNHNHQQIILDKGMLVAIDELMQSLNHNGETLRQKPPVGEADPYRVKMKLCILLHAFSTRVVTINRVMGYLSSA
notes: Receptor-masked monovalent murine IL12; also called Fc x Fc-mIL12Rb1(D1)-mIL12p40-p35
B3: Bivalent: Fc-IL12(p40-p35) (Fc fusion)
chain: ESKYGPPCPPCPAPPVAGPSVFLFPPKPKDTLMISRTPEVTCVVVDVSQEDPEVQFNWYVDGVEVHNAKTKPREEQFNSTYRVVSVLTVLHQDWLNGKEYKCKVSNKGLPSSIEKTISKAKGQPREPQVYTLPPSQEEMTKNQVSLTCLVKGFYPSDIAVEWESNGQPENNYKTTPPVLDSDGSFFLYSRLTVDKSRWQEGNVFSCSVMHEALHNHYTQKSLSLSLGKGGGGSGGGGSGGGGSMWELEKDVYVVEVDWTPDAPGETVNLTCDTPEEDDITWTSDQRHGVIGSGKTLTITVKEFLDAGQYTCHKGGETLSHSHLLLHKKENGIWSTEILKNFKNKTFLKCEAPNYSGRFTCSWLVQRNMDLKFNIKSSSSSPDSRAVTCGMASLSAEKVTLDQRDYEKYSVSCQEDVTCPTAEETLPIELALEARQQNKYENYSTSFFIRDIIKPDPPKNLQMKPLKNSQVEVSWEYPDSWSTPHSYFSLKFFVRIQRKKEKMKETEEGCNQKGAFLVEKTSTEVQCKGGNVCVQAQDRYYNSSCSKWACVPCRVRSGGGGSGGGGSGGGGSRVIPVSGPARCLSQSRNLLKTTDDMVKTAREKLKHYSCTAEDIDHEDITRDQTSTLKTCLPLELHKNESCLATRETSSTTRGSCLPPQKTSLMMTLCLGSIYEDLKMYQTEFQAINAALQNHNHQQIILDKGMLVAIDELMQSLNHNGETLRQKPPVGEADPYRVKMKLCILLHAFSTRVVTINRVMGYLSSA
B4: Fc-IL12(mutein 14) (Fc fusion)
chain: B3 chain with E302A, F303A
B5: Fc-p40-p35 x Fc-IL12Rβ2(D1) (Fc fusion)
chain 1: ESKYGPPCPPCPAPPVAGPSVFLFPPKPKDTLMISRTPEVTCVVVDVSQEDPEVQFNWYVDGVEVHNAKTKPREEQFNSTYRVVSVLTVLHQDWLNGKEYKCKVSNKGLPSSIEKTISKAKGQPREPQVYTLPPSQEEMTKNQVSLSCAVKGFYPSDIAVEWESNGQPENNYKTTPPVLDSDGSFFLVSRLTVDKSRWQEGNVFSCSVMHEALHNRFTQKSLSLSPGKGGGGSGGGGSGGGGSNIDVCKLGTVTVQPAPVIPLGSAANISCSLNPKQGCSHYPSSNELILLKFVNDVLVENLHGKKVHDHTGHSSTFQVTNLSLGMTLFVCKLNCSNSQKKPPVPVCGVEISVGV
chain 2: B3 chain with T147W
notes: Receptor-masked monovalent murine IL12; also called hIgG4s(HoleStar)-mIL12Rb2(D1) x hIgG4s(Knob)-mIL12p40-p35
B6: Fc-p40-p35 x Fc (Fc fusion)
chain 1: B2 chain 1
chain 2: B3 chain with T147W
notes: hIgG4s(HoleStar) x hIgG4s(Knob)-p40-p35, murine IL12; also called Fc-p40-p35×Fc control; unmasked monovalent control
B7: Fc-IL12(mutein 17) (Fc fusion)
chain: B3 chain with E336A, K438A
B8: Fc-IL12(mutein 16) (Fc fusion)
chain: B3 chain with W258A, F303A
B9: Fc-IL12(mutein 15) (Fc fusion)
chain: B3 chain with E302A, F303A, K327A

Experiments:
[1] = target: T1, murine IL12 receptor complex (IL12Rβ1 and IL12Rβ2) (mouse, UniProt Q60837 20-738; P97378 24-874); test: cell-based or functional assay
[2] = target: T1, murine IL12 receptor complex (IL12Rβ1 …); test: flow cytometry on activated primary mouse T cells (CD25+ CD8+ CD90.2+), anti-human Fc detection, MFI
Method: Spleens were harvested from C57BL/6 mice and dissociated manually. Splenocytes were stimulated by culturing for 48 hours in RPMI+10% FBS+2 mM L-glutamine/Pen/Strep in the presence of anti-CD3 and anti-CD28 activation beads (Thermo/11456D) at a 1:3 (beads:splenocytes) ratio and in the presence of 30 U/mL human IL-2 (proleukin). […] Cells were washed once before plating 200,000 cells per well in a 96-well plate and staining indicated concentration of test IL12-Fc fusion proteins or variant molecules for 2 hours on ice. Cells were washed twice before staining for the Fc portion using an ahuFC antibody (Jackson Immuno 109-136-170). Data was acquired using a BD LSRFortessa™ X-20 instrument. Data plots represent geometric mean fluorescence intensity (MFI) of the ahuFC signal from CD25+, CD8+CD90.2+ T cells.

[3] = target: T1, murine IL12 receptor complex (IL12Rβ1 …); test: cell-based or functional assay; remark: listed apart in the source
[4] = target: T1, murine IL12 receptor complex (IL12Rβ1 …); test: cell-based or functional assay; remark: listed apart in the source

T1 sequence (Q60837 20-738, chain 1 of 2): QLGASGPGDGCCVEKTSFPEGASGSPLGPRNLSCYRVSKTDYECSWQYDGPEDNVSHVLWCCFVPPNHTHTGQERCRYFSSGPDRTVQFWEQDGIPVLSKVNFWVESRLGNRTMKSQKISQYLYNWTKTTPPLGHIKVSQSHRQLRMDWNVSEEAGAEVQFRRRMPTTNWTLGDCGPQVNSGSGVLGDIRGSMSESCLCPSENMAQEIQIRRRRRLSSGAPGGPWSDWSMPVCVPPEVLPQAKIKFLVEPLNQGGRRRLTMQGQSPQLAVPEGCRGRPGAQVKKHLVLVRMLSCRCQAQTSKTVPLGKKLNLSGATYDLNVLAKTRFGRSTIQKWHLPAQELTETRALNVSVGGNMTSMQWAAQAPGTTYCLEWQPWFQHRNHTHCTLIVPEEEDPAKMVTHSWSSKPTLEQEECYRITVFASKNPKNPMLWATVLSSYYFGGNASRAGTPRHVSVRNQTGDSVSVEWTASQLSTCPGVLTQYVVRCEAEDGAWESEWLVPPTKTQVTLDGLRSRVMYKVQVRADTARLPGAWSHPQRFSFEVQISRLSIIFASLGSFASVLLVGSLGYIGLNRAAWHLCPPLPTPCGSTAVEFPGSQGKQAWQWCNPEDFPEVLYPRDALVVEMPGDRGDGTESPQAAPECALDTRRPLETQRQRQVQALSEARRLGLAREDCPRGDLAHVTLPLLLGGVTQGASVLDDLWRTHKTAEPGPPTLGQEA
T1 sequence (P97378 24-874, chain 2 of 2): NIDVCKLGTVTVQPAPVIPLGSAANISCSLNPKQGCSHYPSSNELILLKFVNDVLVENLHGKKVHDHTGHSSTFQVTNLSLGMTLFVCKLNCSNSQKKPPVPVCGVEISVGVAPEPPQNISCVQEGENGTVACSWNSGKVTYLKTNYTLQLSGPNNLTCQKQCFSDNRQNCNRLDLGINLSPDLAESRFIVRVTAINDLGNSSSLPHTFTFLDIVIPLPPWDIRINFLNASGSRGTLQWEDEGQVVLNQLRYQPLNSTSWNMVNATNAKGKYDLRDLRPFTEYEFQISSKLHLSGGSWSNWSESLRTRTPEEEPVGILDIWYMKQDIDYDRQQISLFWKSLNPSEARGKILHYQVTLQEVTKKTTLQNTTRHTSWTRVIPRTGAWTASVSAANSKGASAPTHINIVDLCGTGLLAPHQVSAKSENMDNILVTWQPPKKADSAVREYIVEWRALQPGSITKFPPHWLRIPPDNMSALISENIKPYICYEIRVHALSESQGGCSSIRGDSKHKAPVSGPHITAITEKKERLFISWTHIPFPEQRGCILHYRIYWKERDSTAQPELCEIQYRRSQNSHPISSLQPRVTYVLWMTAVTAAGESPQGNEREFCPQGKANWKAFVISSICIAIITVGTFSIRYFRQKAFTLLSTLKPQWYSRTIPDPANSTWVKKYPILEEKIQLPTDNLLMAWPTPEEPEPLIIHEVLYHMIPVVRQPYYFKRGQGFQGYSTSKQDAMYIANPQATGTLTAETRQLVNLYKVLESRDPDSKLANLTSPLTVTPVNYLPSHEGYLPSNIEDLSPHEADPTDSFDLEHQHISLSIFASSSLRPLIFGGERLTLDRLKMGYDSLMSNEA

Binder	binding result [2]	EC50 (M); STAT3-Luc reporter, CTLL2/STAT3-Luc cells [4] [M]	Max fold induction; STAT3-Luc reporter, CTLL2/STAT3-Luc cells [4] [fold]	other results
B1	–	–	–	EC50 (M); STAT3-Luc reporter, CTLL2/STAT3-Luc cells [1]: 8.11e-11 M; Fold induction at 6.25 nM; STAT3-Luc reporter, CTLL2/STAT3-Luc cells [1]: 8.93 fold; Max fold induction; STAT3-Luc reporter, CTLL2/STAT3-Luc cells [1]: 9.62 fold
B2	binds	–	–	–
B3	–	9.95e-11	12.2	EC50 (M); STAT3-Luc reporter, CTLL2/STAT3-Luc cells [1]: 1.85e-11 M; Fold induction at 6.25 nM; STAT3-Luc reporter, CTLL2/STAT3-Luc cells [1]: 6.73 fold; Max fold induction; STAT3-Luc reporter, CTLL2/STAT3-Luc cells [1]: 7.66 fold; EC50 (M); STAT3-Luc reporter, CTLL2/STAT3-Luc cells [3]: 6.11e-11 M; Fold induction at 20 nM; STAT3-Luc reporter, CTLL2/STAT3-Luc cells [3]: 12.8 fold; Max fold induction; STAT3-Luc reporter, CTLL2/STAT3-Luc cells [3]: 14.4 fold
B4	–	3.79e-09	7.31	–
B5	binds	–	–	–
B6	binds	–	–	–
B7	–	3.53e-10	9.67	–
B8	–	1.67e-08	2.48	–
B9	–	–	1.18	–
